Experiments:
[1] = target: PD-1 on GS-J2/PD-1 cells (human) (UniProt Q15116); experiment: cell-based or functional assay
人PD-1蛋白 (human) [2] = target: 人PD-1蛋白 (human) (UniProt Q15116); experiment: BLI (ForteBio), antibody loaded on sensor, PD-1 protein 100-6.25 nM in solution
人PD-1蛋白 (human) [3] = target: 人PD-1蛋白 (human) (UniProt Q15116); experiment: competition ELISA: human PD-1 coated, antibody titrated together with biotin-labelled PD-L1 (competitor)

Sequence of 人PD-1蛋白 (human) (Q15116 25-167 limits assumed): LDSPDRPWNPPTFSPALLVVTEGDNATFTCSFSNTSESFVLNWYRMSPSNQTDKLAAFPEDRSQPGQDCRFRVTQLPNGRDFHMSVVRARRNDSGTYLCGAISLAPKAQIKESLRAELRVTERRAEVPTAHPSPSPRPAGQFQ
Sequence of PD-1 on GS-J2/PD-1 cells (human) (Q15116 25-288 limits assumed): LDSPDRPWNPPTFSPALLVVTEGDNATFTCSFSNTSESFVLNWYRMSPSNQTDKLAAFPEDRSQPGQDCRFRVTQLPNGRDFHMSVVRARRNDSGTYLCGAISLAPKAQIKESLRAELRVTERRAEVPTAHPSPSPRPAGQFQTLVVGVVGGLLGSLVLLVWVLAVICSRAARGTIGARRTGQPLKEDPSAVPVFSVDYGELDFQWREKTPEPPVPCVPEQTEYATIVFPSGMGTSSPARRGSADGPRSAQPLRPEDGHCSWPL

Keytruda (antibody) was tested, and the EC50(nM), luciferase reporter (RLU, 激活百分比) in GS-J2/PD-1 cells co-cultured with GS-C2/PD-L1 cells [1] was 0.142 nM, the Kd (人PD-1蛋白 (human) [2]) was 1.01 nM and the koff (人PD-1蛋白 (human) [2]) was 0.000286 s⁻¹. For the same substance, the kon (人PD-1蛋白 (human) [2]) was 283000 M⁻¹ s⁻¹ and the EC50 (人PD-1蛋白 (human) [3]) was 110 nM.
Opdivo (antibody) showed a Kd (人PD-1蛋白 (human) [2]) of 1.63 nM and an EC50 (人PD-1蛋白 (human) [3]) of 175 nM.

From CN113372445A
